# Source: paper PMC8586454, “Structural and Functional Insights Into Skl and Pal Endolysins, Two Cysteine-Amidases With Anti-pneumococcal Activity. Dithiothreitol (DTT) Effect on Lytic Activity” (Frontiers in Microbiology, 2021)
# T1: Pal (Streptococcus phage Dp-1, UniProt O03979)
# T1 construct: full-length, untagged, E. coli pT7-7 (pPal, amplified from pMSP11); DEAE-cellulose purified with choline elution, dialysed
# T1 sequence (O03979 1-296): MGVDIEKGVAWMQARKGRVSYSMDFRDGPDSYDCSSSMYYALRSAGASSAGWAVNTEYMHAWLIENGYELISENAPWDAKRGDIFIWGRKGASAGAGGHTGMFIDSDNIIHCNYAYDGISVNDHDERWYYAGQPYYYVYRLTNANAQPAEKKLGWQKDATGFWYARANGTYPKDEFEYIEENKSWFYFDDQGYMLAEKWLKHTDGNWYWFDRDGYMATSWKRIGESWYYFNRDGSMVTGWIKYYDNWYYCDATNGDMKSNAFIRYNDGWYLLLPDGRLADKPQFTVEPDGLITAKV
# Experiments:
# Pal = target: T1, Pal; assay: SAXS of choline-bound dimer; assay type: binding; conditions: 20 mM PB pH 8.0, 4 °C; saturating choline
# [1] = target: Skl Y264H mutant (Streptococcus mitis prophage φSK137); assay: AUC; sedimentation velocity, 20°C, PB pH 6.5, under the conditions of the CD titration; choline saturating the lower affinity sites
# [2] = target: Skl Y264H mutant (Streptococcus mitis prophage φSK137); assay: AUC; sedimentation equilibrium, 20°C, 50 mM Tris–HCl pH 8.0, increasing choline
# [3] = target: Skl endolysin (N-acetylmuramoyl-L-alanine amidase of the Streptococcus mitis prophage φSK137), wild type (Streptococcus mitis prophage φSK137); assay: SAXS; 4°C, 20 mM PB (Pal) or 50 mM Tris–HCl (Skl) pH 8.0, 2–8 mg/ml protein extrapolated to infinite dilution, saturating choline
# [4] = target: Skl endolysin (N-acetylmuramoyl-L-alanine amidase of the Streptococcus mitis prophage φSK137), wild type (Streptococcus mitis prophage φSK137); assay: AUC; sedimentation velocity, 20°C, PB pH 6.5, under the conditions of the CD titration; choline saturating the lower affinity sites
# [5] = target: Skl endolysin (N-acetylmuramoyl-L-alanine amidase of the Streptococcus mitis prophage φSK137), wild type (Streptococcus mitis prophage φSK137); assay: AUC; sedimentation equilibrium, 20°C, single-species model; choline-saturated
# [6] = target: the molecule itself; assay: SAXS; 4°C, 20 mM PB (Pal) or 50 mM Tris–HCl (Skl) pH 8.0, 2–8 mg/ml protein extrapolated to infinite dilution, saturating choline
# [7] = target: the molecule itself; assay: non-reducing SDS-PAGE (intermolecular disulfide); 0.36 mg/ml protein pretreated with 40 mM iodoacetamide, then 1% SDS, sample buffer without β-mercaptoethanol (SB), 12% gel, Coomassie stain
molecule,measurement,setting,value
C[N+](C)(C)CCO [choline],SAXS of choline-bound dimer,Pal,Pal dimer in complex with choline
Skl Y264H mutant (enzyme),percent remaining as monomer,[1],50%
same,stoichiometry N,[2],2
"Skl endolysin (N-acetylmuramoyl-L-alanine amidase of the Streptococcus mitis prophage φSK137), wild type (enzyme)",stoichiometry N,[3],2
same,stoichiometry N,[4],2
same,stoichiometry N,[5],2
"Pal endolysin (N-acetylmuramoyl-L-alanine amidase of the pneumococcal bacteriophage Dp-1), wild type (enzyme, UniProt O03979 1-296, looked up, Pal-coding region amplified from pMSP11; No tag; 1 μM equals 0.0345 mg/ml. 'Full length' rests on 'Pal-coding region was PCR amplified'; also called Pal WT; Pal NAM-amidase; source: E. coli BL21(DE3) or C41(DE3), pT7-7 derivative (pPal), purified (DEAE-cellulose, eluted with choline)) MGVDIEKGVAWMQARKGRVSYSMDFRDGPDSYDCSSSMYYALRSAGASSAGWAVNTEYMHAWLIENGYELISENAPWDAKRGDIFIWGRKGASAGAGGHTGMFIDSDNIIHCNYAYDGISVNDHDERWYYAGQPYYYVYRLTNANAQPAEKKLGWQKDATGFWYARANGTYPKDEFEYIEENKSWFYFDDQGYMLAEKWLKHTDGNWYWFDRDGYMATSWKRIGESWYYFNRDGSMVTGWIKYYDNWYYCDATNGDMKSNAFIRYNDGWYLLLPDGRLADKPQFTVEPDGLITAKV",stoichiometry N,[6],2
"Pal C112S mutant (enzyme, pneumococcal bacteriophage Dp-1, UniProt O03979 1-296, looked up, free thiols blocked with iodoacetamide before SDS-PAGE, Pal, NAM-amidase of the pneumococcal Dp-1 bacteriophage, with Cys112 changed to serine; source: E. coli BL21(DE3) or C41(DE3), pT7-7 derivative, purified (DEAE-cellulose, eluted with choline)) MGVDIEKGVAWMQARKGRVSYSMDFRDGPDSYDCSSSMYYALRSAGASSAGWAVNTEYMHAWLIENGYELISENAPWDAKRGDIFIWGRKGASAGAGGHTGMFIDSDNIIHSNYAYDGISVNDHDERWYYAGQPYYYVYRLTNANAQPAEKKLGWQKDATGFWYARANGTYPKDEFEYIEENKSWFYFDDQGYMLAEKWLKHTDGNWYWFDRDGYMATSWKRIGESWYYFNRDGSMVTGWIKYYDNWYYCDATNGDMKSNAFIRYNDGWYLLLPDGRLADKPQFTVEPDGLITAKV",binding result,[7],binds
"Pal C112S–C250S double mutant (enzyme, pneumococcal bacteriophage Dp-1, UniProt O03979 1-296, looked up, free thiols blocked with iodoacetamide before SDS-PAGE, Pal, NAM-amidase of the pneumococcal Dp-1 bacteriophage, with Cys112 and Cys250 changed to serine; source: E. coli BL21(DE3) or C41(DE3), pT7-7 derivative (made from pPal-C250S), purified (DEAE-cellulose, eluted with choline)) MGVDIEKGVAWMQARKGRVSYSMDFRDGPDSYDCSSSMYYALRSAGASSAGWAVNTEYMHAWLIENGYELISENAPWDAKRGDIFIWGRKGASAGAGGHTGMFIDSDNIIHSNYAYDGISVNDHDERWYYAGQPYYYVYRLTNANAQPAEKKLGWQKDATGFWYARANGTYPKDEFEYIEENKSWFYFDDQGYMLAEKWLKHTDGNWYWFDRDGYMATSWKRIGESWYYFNRDGSMVTGWIKYYDNWYYSDATNGDMKSNAFIRYNDGWYLLLPDGRLADKPQFTVEPDGLITAKV",binding result,[7],binds
